The results in this text go back to PMC2824050.

The target in the experiment is HSV-1 cytoplasmic capsids (HSV-1, KOS strain) (UniProt P10202). Description: co-sedimentation.
UniProt P10202, sequence (P10202 whole entry, looked up): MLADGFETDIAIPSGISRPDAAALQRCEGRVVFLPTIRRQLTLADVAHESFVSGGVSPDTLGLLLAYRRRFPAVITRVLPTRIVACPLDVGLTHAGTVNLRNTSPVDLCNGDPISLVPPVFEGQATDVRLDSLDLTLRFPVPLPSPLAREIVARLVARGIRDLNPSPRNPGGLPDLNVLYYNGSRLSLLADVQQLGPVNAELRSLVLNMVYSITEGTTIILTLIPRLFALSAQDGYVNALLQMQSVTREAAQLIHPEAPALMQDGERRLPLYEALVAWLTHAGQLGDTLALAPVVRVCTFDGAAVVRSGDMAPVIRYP

B1: UL16 tegument protein of herpes simplex virus (natural protein)
chain: MAQLGPRRPLAPPGPPGTLPRPDSRAGARGTRDRVDDLGTDVDSIARIVNSVFVWRVVRADERLKIFRCLTVLTEPLCQVALPNPDPGRALFCEIFLYLTRPKALRLPPNTFFALFFFNRERRYCAIVHLRSVTHPLTPLLCTLTFARIRAATPPEETPDPTTEQLAEEPVVGELDGAYLVPAKTPPEPGACCALGPGAWWHLPSGQIYCWAMDSDLGSLCPPGSRARHLGWLLARITNHPGGCESCAPPPHIDSANALWLSSVVTESCPCVAPCLWAKMAQCTLAVQGDASLCPLLFGHPVDTVTLLQAPRRPCITDRLQEVVGGRCGADNIPPTSAGWRLCVFSSYISRLFATSCPTVARAVARASSSDPE
Consider B1, for which the amount of UL16 on ΔUL37 capsids relative to WT is 42%.
